How the values were obtained:
[1] = target: T1, aaPlsY (Aquifex aeolicus, UniProt O66905); assay: coupled MDCC-PBP Pi-biosensor fluorescence assay in lipid cubic phase (monoolein); assay type: biochemical; design: gene plsY; full length, 192 residues, monomer, codon-optimised gene, E. coli BL21(DE3); assays: C-terminal His8 tag (p3EC); crystals: C-terminal His-eGFP removed by 3C protease; DDM-purified, reconstituted in lipid cubic phase; conditions: co-substrate 30 mM glycerol phosphate; pH 8.0, 30 °C; 0-2 mol% 16:0-P in the lipid phase
[2] = target: T1, aaPlsY; design: gene plsY; conditions: 7.8 MAG LCP with 0.4 M Na2HPO4, pH 7.0; three phosphates from phosphate hole to phosphate clamp
[3] = substrate: O=P(O)(O)OC[C@H](O)CO; assay: coupled MDCC-PBP Pi-biosensor fluorescence assay in lipid cubic phase (monoolein); assay type: biochemical, Aquifex aeolicus; conditions: co-substrate 1.8 mol% 16:0-P, pH 8.0, 30 °C, 0-50 mM G3P
[4] = substrate: O=P(O)(O)OC[C@H](O)CO; assay: as above; assay type: biochemical, Aquifex aeolicus; conditions: co-substrate 3.3-5.2 mol% 16:0-P, pH 8.0, 30 °C, no technical replicates
Excerpt: coupled MDCC-PBP Pi-biosensor fluorescence assay in lipid cubic phase (monoolein) on […]

Molecule	Km [4] [mM]	kcat [4] [s⁻¹]	further results
CCCCCCCCCCCCCCCC(=O)OP(=O)(O)O [16:0-P, palmitoyl phosphate]	–	–	apparent Km [1]: 0.1 mol% (relative to monoolein)
O=P(O)(O)O [Pi, inorganic phosphate]	–	–	X-ray crystal structure, 1.83 Å [2]: three phosphates are trapped in a positive patch stretching from the phosphate hole
aaPlsY (Aquifex aeolicus VF5) (protein, full length, 192 residues, monomer, codon-optimised gene, E. coli BL21(DE3); assays: C-terminal His8 tag (p3EC); crystals: C-terminal His-eGFP removed by 3C protease; DDM-purified, reconstituted in lipid cubic phase) MKALFLVIFAYLLGSITFGEVIAKLKGVDLRNVGSGNVGATNVTRALGKKYGVLVFFLDFLKGFIPALIAVKSFGIDSWVLTFTGLASVLGHMYPVFFGFKGGKGVATALGVVFAVSPSVALFSFLVWLGIFLWKRYVSLASITATISAFLFLFVAGYPVNVLFMAIVIGALIIYRHRENINRLLTGREHRF	–	–	Km [3]: 1.39 mM; kcat [3]: 13.4 s⁻¹
aaPlsY (Aquifex aeolicus VF5; N37A) (protein, full length, 192 residues, monomer, codon-optimised gene, E. coli BL21(DE3); assays: C-terminal His8 tag (p3EC); crystals: C-terminal His-eGFP removed by 3C protease; DDM-purified, reconstituted in lipid cubic phase) MKALFLVIFAYLLGSITFGEVIAKLKGVDLRNVGSGAVGATNVTRALGKKYGVLVFFLDFLKGFIPALIAVKSFGIDSWVLTFTGLASVLGHMYPVFFGFKGGKGVATALGVVFAVSPSVALFSFLVWLGIFLWKRYVSLASITATISAFLFLFVAGYPVNVLFMAIVIGALIIYRHRENINRLLTGREHRF	3.04	2.49	–
aaPlsY (Aquifex aeolicus VF5; N180A) (protein, full length, 192 residues, monomer, codon-optimised gene, E. coli BL21(DE3); assays: C-terminal His8 tag (p3EC); crystals: C-terminal His-eGFP removed by 3C protease; DDM-purified, reconstituted in lipid cubic phase) MKALFLVIFAYLLGSITFGEVIAKLKGVDLRNVGSGNVGATNVTRALGKKYGVLVFFLDFLKGFIPALIAVKSFGIDSWVLTFTGLASVLGHMYPVFFGFKGGKGVATALGVVFAVSPSVALFSFLVWLGIFLWKRYVSLASITATISAFLFLFVAGYPVNVLFMAIVIGALIIYRHREAINRLLTGREHRF	26.31	0.62	–
aaPlsY (Aquifex aeolicus VF5; T41A) (protein, full length, 192 residues, monomer, codon-optimised gene, E. coli BL21(DE3); assays: C-terminal His8 tag (p3EC); crystals: C-terminal His-eGFP removed by 3C protease; DDM-purified, reconstituted in lipid cubic phase) MKALFLVIFAYLLGSITFGEVIAKLKGVDLRNVGSGNVGAANVTRALGKKYGVLVFFLDFLKGFIPALIAVKSFGIDSWVLTFTGLASVLGHMYPVFFGFKGGKGVATALGVVFAVSPSVALFSFLVWLGIFLWKRYVSLASITATISAFLFLFVAGYPVNVLFMAIVIGALIIYRHRENINRLLTGREHRF	0.43	0.64	–
aaPlsY (Aquifex aeolicus VF5; H177A) (protein, full length, 192 residues, monomer, codon-optimised gene, E. coli BL21(DE3); assays: C-terminal His8 tag (p3EC); crystals: C-terminal His-eGFP removed by 3C protease; DDM-purified, reconstituted in lipid cubic phase) MKALFLVIFAYLLGSITFGEVIAKLKGVDLRNVGSGNVGATNVTRALGKKYGVLVFFLDFLKGFIPALIAVKSFGIDSWVLTFTGLASVLGHMYPVFFGFKGGKGVATALGVVFAVSPSVALFSFLVWLGIFLWKRYVSLASITATISAFLFLFVAGYPVNVLFMAIVIGALIIYRARENINRLLTGREHRF	9.24	0.88	–
aaPlsY (Aquifex aeolicus VF5; K104A) (protein, full length, 192 residues, monomer, codon-optimised gene, E. coli BL21(DE3); assays: C-terminal His8 tag (p3EC); crystals: C-terminal His-eGFP removed by 3C protease; DDM-purified, reconstituted in lipid cubic phase) MKALFLVIFAYLLGSITFGEVIAKLKGVDLRNVGSGNVGATNVTRALGKKYGVLVFFLDFLKGFIPALIAVKSFGIDSWVLTFTGLASVLGHMYPVFFGFKGGAGVATALGVVFAVSPSVALFSFLVWLGIFLWKRYVSLASITATISAFLFLFVAGYPVNVLFMAIVIGALIIYRHRENINRLLTGREHRF	6.58	1	–
aaPlsY (Aquifex aeolicus VF5; R45A) (protein, full length, 192 residues, monomer, codon-optimised gene, E. coli BL21(DE3); assays: C-terminal His8 tag (p3EC); crystals: C-terminal His-eGFP removed by 3C protease; DDM-purified, reconstituted in lipid cubic phase) MKALFLVIFAYLLGSITFGEVIAKLKGVDLRNVGSGNVGATNVTAALGKKYGVLVFFLDFLKGFIPALIAVKSFGIDSWVLTFTGLASVLGHMYPVFFGFKGGKGVATALGVVFAVSPSVALFSFLVWLGIFLWKRYVSLASITATISAFLFLFVAGYPVNVLFMAIVIGALIIYRHRENINRLLTGREHRF	50.46	0.15	–
aaPlsY (Aquifex aeolicus VF5; H92A) (protein, full length, 192 residues, monomer, codon-optimised gene, E. coli BL21(DE3); assays: C-terminal His8 tag (p3EC); crystals: C-terminal His-eGFP removed by 3C protease; DDM-purified, reconstituted in lipid cubic phase) MKALFLVIFAYLLGSITFGEVIAKLKGVDLRNVGSGNVGATNVTRALGKKYGVLVFFLDFLKGFIPALIAVKSFGIDSWVLTFTGLASVLGAMYPVFFGFKGGKGVATALGVVFAVSPSVALFSFLVWLGIFLWKRYVSLASITATISAFLFLFVAGYPVNVLFMAIVIGALIIYRHRENINRLLTGREHRF	2.64	2.37	–
aaPlsY (Aquifex aeolicus VF5; S142A) (protein, full length, 192 residues, monomer, codon-optimised gene, E. coli BL21(DE3); assays: C-terminal His8 tag (p3EC); crystals: C-terminal His-eGFP removed by 3C protease; DDM-purified, reconstituted in lipid cubic phase) MKALFLVIFAYLLGSITFGEVIAKLKGVDLRNVGSGNVGATNVTRALGKKYGVLVFFLDFLKGFIPALIAVKSFGIDSWVLTFTGLASVLGHMYPVFFGFKGGKGVATALGVVFAVSPSVALFSFLVWLGIFLWKRYVSLAAITATISAFLFLFVAGYPVNVLFMAIVIGALIIYRHRENINRLLTGREHRF	2.89	4.29	–
aaPlsY (Aquifex aeolicus VF5; E189A) (protein, full length, 192 residues, monomer, codon-optimised gene, E. coli BL21(DE3); assays: C-terminal His8 tag (p3EC); crystals: C-terminal His-eGFP removed by 3C protease; DDM-purified, reconstituted in lipid cubic phase) MKALFLVIFAYLLGSITFGEVIAKLKGVDLRNVGSGNVGATNVTRALGKKYGVLVFFLDFLKGFIPALIAVKSFGIDSWVLTFTGLASVLGHMYPVFFGFKGGKGVATALGVVFAVSPSVALFSFLVWLGIFLWKRYVSLASITATISAFLFLFVAGYPVNVLFMAIVIGALIIYRHRENINRLLTGRAHRF	5.79	18.5	–
aaPlsY (Aquifex aeolicus VF5; S35A) (protein, full length, 192 residues, monomer, codon-optimised gene, E. coli BL21(DE3); assays: C-terminal His8 tag (p3EC); crystals: C-terminal His-eGFP removed by 3C protease; DDM-purified, reconstituted in lipid cubic phase) MKALFLVIFAYLLGSITFGEVIAKLKGVDLRNVGAGNVGATNVTRALGKKYGVLVFFLDFLKGFIPALIAVKSFGIDSWVLTFTGLASVLGHMYPVFFGFKGGKGVATALGVVFAVSPSVALFSFLVWLGIFLWKRYVSLASITATISAFLFLFVAGYPVNVLFMAIVIGALIIYRHRENINRLLTGREHRF	13.75	0.64	–

— paper PMC5700162, “Structural insights into the committed step of bacterial phospholipid biosynthesis” (Nature Communications, 2017)
